From the MegaScale stability set (Tsuboyama et al. 2023)

B1: EEHEE_rd4_0647 (parent)
chain: MQVTWGNVTVTFSNPEEAKKYAEKVARKLGGQVELHNGQFRIK

Variants of: B1
Assay: folding stability dG (cDNA display proteolysis); higher = more stable
Details: PBS, room temperature

First: MQVRWGNVTVTFSNPEEAKKYAEKVARKLGGQVELHNGQFRIK [T4R]
Second: MQVAWGNVTVTFSNPEEAKKYAEKVARKLGGQVELHNGQFRIK [T4A]
The “folding stability dG” value of the first is higher: 11.5 kJ/mol for the first, 10.4 kJ/mol for the second.

First: MQVTWGNVTVTFSNPEEAKKYAEKVARKLGGQVYLHNGQFRIK [E34Y]
Second: MQVTWGNVTVTFSNPEEAKKYAEKVARKLGGQVKLHNGQFRIK [E34K]
The “folding stability dG” value of the first is higher: 11.6 kJ/mol for the first, 7.22 kJ/mol for the second.

Going from MQVTWGNVTVTFSNPESAKKYAEKVARKLGGQVELHNGQFRIK [E17S] to MQVTWGNVTVTFSNPEFAKKYAEKVARKLGGQVELHNGQFRIK [E17F], the “folding stability dG” value falls from 11.4 kJ/mol to 10.4 kJ/mol.

First: MQVTWGNVTVTFSNPELAKKYAEKVARKLGGQVELHNGQFRIK [E17L]
Second: MQVTWGNVTVTFSNPEGAKKYAEKVARKLGGQVELHNGQFRIK [E17G]
The “folding stability dG” value of the first is higher: 11.9 kJ/mol for the first, 8.22 kJ/mol for the second.

First: MQVTWGNVTVTFSNPEDAKKYAEKVARKLGGQVELHNGQFRIK [E17D]
Second: MQVTWGNVTVTFSNPEEAKKYAEDVARKLGGQVELHNGQFRIK [K24D]
The “folding stability dG” value of the first is higher: 12.2 kJ/mol for the first, 11.4 kJ/mol for the second.

Going from MQVTWGNVTVTFSNPEEAKKYAEPVARKLGGQVELHNGQFRIK [K24P] to MQVTWGNVTVTFSNPEEAKKYAEKVARKLGRQVELHNGQFRIK [G31R], the “folding stability dG” value rises from -0.611 kJ/mol to 7.54 kJ/mol.

Compared with MQVTWGNVTVTFSNPEEAKKYAEKVARKLGLQVELHNGQFRIK [G31L], MQVTWGNVTVTFSNPEEAKKYAEKVARKLGVQVELHNGQFRIK [G31V] is lower in “folding stability dG” value: 10.9 kJ/mol for the first, 9.51 kJ/mol for the second.

Compared with MQVTWGNVTVTFSNPEEAKKYAEKVARKLGQQVELHNGQFRIK [G31Q], MQVTWGNFTVTFSNPEEAKKYAEKVARKLGGQVELHNGQFRIK [V8F] is higher in “folding stability dG” value: 7.84 kJ/mol for the first, 11.8 kJ/mol for the second.

Going from MQVTWGNKTVTFSNPEEAKKYAEKVARKLGGQVELHNGQFRIK [V8K] to MQVTWGNQTVTFSNPEEAKKYAEKVARKLGGQVELHNGQFRIK [V8Q], the “folding stability dG” value falls from 10.7 kJ/mol to 9.84 kJ/mol.

Going from MQVTWGNITVTFSNPEEAKKYAEKVARKLGGQVELHNGQFRIK [V8I] to MQVTWGNETVTFSNPEEAKKYAEKVARKLGGQVELHNGQFRIK [V8E], the “folding stability dG” value falls from 12.4 kJ/mol to 8.04 kJ/mol.

Compared with MQVTWGNMTVTFSNPEEAKKYAEKVARKLGGQVELHNGQFRIK [V8M], MQVTWGNYTVTFSNPEEAKKYAEKVARKLGGQVELHNGQFRIK [V8Y] is higher in “folding stability dG” value: 11.2 kJ/mol for the first, 11.9 kJ/mol for the second.

First: MQVTWGNVTVTFSNREEAKKYAEKVARKLGGQVELHNGQFRIK [P15R]
Second: MQVTWGNVTVTFSNTEEAKKYAEKVARKLGGQVELHNGQFRIK [P15T]
The “folding stability dG” value of the first is lower: 11.6 kJ/mol for the first, 11.8 kJ/mol for the second.

First: MQVTWGNVTVTFSNLEEAKKYAEKVARKLGGQVELHNGQFRIK [P15L]
Second: MQVTWGNVTVTFSNAEEAKKYAEKVARKLGGQVELHNGQFRIK [P15A]
The “folding stability dG” value of the first is lower: 11.6 kJ/mol for the first, 12.1 kJ/mol for the second.

Compared with MQVTWGNVTVTFSNPEEAKKYAEKVARKLGGQVELHLGQFRIK [N37L], MQVTWGNVTVTFSNPEEAKKYAEKVARKLGGQVELHTGQFRIK [N37T] is lower in “folding stability dG” value: 8.95 kJ/mol for the first, 5.71 kJ/mol for the second.

Compared with MQVTWGNVTVTFSIPEEAKKYAEKVARKLGGQVELHNGQFRIK [N14I], MQVTWGNVTVTFSKPEEAKKYAEKVARKLGGQVELHNGQFRIK [N14K] is higher in “folding stability dG” value: 8.72 kJ/mol for the first, 10.1 kJ/mol for the second.

Compared with MQVTWGNVTVTFSMPEEAKKYAEKVARKLGGQVELHNGQFRIK [N14M], MQVTWGNVTVTFSNPEEAKKYAEKVARKSGGQVELHNGQFRIK [L29S] is higher in “folding stability dG” value: 8.31 kJ/mol for the first, 8.46 kJ/mol for the second.

Compared with MQVTWGNVTVTFSNPEEAKKYAEKVARKWGGQVELHNGQFRIK [L29W], MQVTWGNVTVTFSNPEEAKKYAEKVARKFGGQVELHNGQFRIK [L29F] is higher in “folding stability dG” value: 10.5 kJ/mol for the first, 11.1 kJ/mol for the second.

Going from MIVTWGNVTVTFSNPEEAKKYAEKVARKLGGQVELHNGQFRIK [Q2I] to MAVTWGNVTVTFSNPEEAKKYAEKVARKLGGQVELHNGQFRIK [Q2A], the “folding stability dG” value falls from 11.8 kJ/mol to 11 kJ/mol.

Going from MRVTWGNVTVTFSNPEEAKKYAEKVARKLGGQVELHNGQFRIK [Q2R] to MSVTWGNVTVTFSNPEEAKKYAEKVARKLGGQVELHNGQFRIK [Q2S], the “folding stability dG” value rises from 11.4 kJ/mol to 12.7 kJ/mol.

Going from MQVTWGNVTVTFSNPEEAKKYAEKVARKLGGQVELHNGQFRIA [K43A] to MQVTWGNVTVTFSNPEEAKKYAEKVARKLGGQVELHNGQFRIP [K43P], the “folding stability dG” value falls from 10.8 kJ/mol to 7.52 kJ/mol.

Going from MQVTWGNVTVTFSNPEEAKKYAEKVARKLGGQVELHNGQGRIK [F40G] to MQVTWGNVTVTFSNPEEAKKYAEKVARKLGGQVELHNGQNRIK [F40N], the “folding stability dG” value rises from 1.36 kJ/mol to 2.66 kJ/mol.

Compared with MQVTWGNVTVTFSNPEEAKKYAEKVARKLGGQVELHNGQVRIK [F40V], MQYTWGNVTVTFSNPEEAKKYAEKVARKLGGQVELHNGQFRIK [V3Y] is lower in “folding stability dG” value: 6.1 kJ/mol for the first, 3.52 kJ/mol for the second.

First: MQRTWGNVTVTFSNPEEAKKYAEKVARKLGGQVELHNGQFRIK [V3R]
Second: MQVTWGNVTVTFSNPEEAKKYCEKVARKLGGQVELHNGQFRIK [A22C]
The “folding stability dG” value of the first is lower: 0.51 kJ/mol for the first, 6.76 kJ/mol for the second.

Compared with MQVTWGNVTVTFSNPEEAKKYVEKVARKLGGQVELHNGQFRIK [A22V], MQVTWGNVTVTFSNPEEAKKYTEKVARKLGGQVELHNGQFRIK [A22T] is lower in “folding stability dG” value: 5.98 kJ/mol for the first, 2.85 kJ/mol for the second.

First: MQVTWGNVTVTFSNPEEAKKFAEKVARKLGGQVELHNGQFRIK [Y21F]
Second: MQVTWGNVTVTFSNPEEAKKHAEKVARKLGGQVELHNGQFRIK [Y21H]
The “folding stability dG” value of the first is higher: 12.8 kJ/mol for the first, 5.67 kJ/mol for the second.

Compared with MQVTWGNVTVTFSNPEEAKKWAEKVARKLGGQVELHNGQFRIK [Y21W], MQVTWGNVTVTFSNPEEAKKYAEKVERKLGGQVELHNGQFRIK [A26E] is lower in “folding stability dG” value: 10.6 kJ/mol for the first, 1.32 kJ/mol for the second.

First: MQVTWGNVTVTFSNPEEAKKYAEKVGRKLGGQVELHNGQFRIK [A26G]
Second: MQVTWGNVTVTFSNPEEAKKYAEKVDRKLGGQVELHNGQFRIK [A26D]
The “folding stability dG” value of the first is higher: 5.78 kJ/mol for the first, 0.126 kJ/mol for the second.

First: MQVTWGNVTVTFSNPEEAKKYAEKVNRKLGGQVELHNGQFRIK [A26N]
Second: MQVTWGNVTVTFSNPEEAKKYAEKVARKLGGQWELHNGQFRIK [V33W]
The “folding stability dG” value of the first is lower: 3.56 kJ/mol for the first, 8.9 kJ/mol for the second.

Going from MQVTWGNVTVTFSNPEEAKKYAEKVARKLGGQHELHNGQFRIK [V33H] to MQVTWGNVTVTFSNPEEAKKYAEKVARKLGGQMELHNGQFRIK [V33M], the “folding stability dG” value rises from 3.14 kJ/mol to 7.79 kJ/mol.

For MQVTWGNVTVTFSNPEEAKKYAEKVARCLGGQVELHNGQFRIK [K28C], the “folding stability dG” value was 15.5 kJ/mol.
